From FireProtDB (doi:10.1016/0022-2836(91)90725-l)

B1: Ribonuclease, P00648 (parent)
chain: MMKMEGIALKKRLSWISVCLLVLVSAAGMLFSTAAKTETSSHKAHTEAQVINTFDGVADYLQTYHKLPDNYITKSEAQALGWVASKGNLADVAPGKSIGGDIFSNREGKLPGKSGRTWREADINYTSGFRNSDRILYSSDWLIYKTTDHYQTFTKIR

Variants of: B1
Conditions: Bacillus amyloliquefaciens; pH 6.3; 25 °C; Urea; Fluorescence; MES 1.00 M; NaCl 613 mM; reversible: yes; structure 1BNI; whole UniProt chain shown

Row | Variant | ddG of mutation (higher = less stable) | denaturant m value | denaturant midpoint (higher = more stable) | unfolding free energy
1 | Y60A | 3.69 kcal/mol | 2.26 kcal/mol/M | 2.86 M | 6.46 kcal/mol
2 | Y60A Y64A | 4.76 kcal/mol | 2.22 kcal/mol/M | 2.43 M | 5.39 kcal/mol
3 | Y60F | 0.63 kcal/mol | 2.17 kcal/mol/M | 4.38 M | 9.52 kcal/mol
4 | Y60F Y64F | 1.23 kcal/mol | 2.08 kcal/mol/M | 4.29 M | 8.92 kcal/mol
5 | Y64F | 0.58 kcal/mol | 2.16 kcal/mol/M | 4.43 M | 9.57 kcal/mol
